In patent US20140213531A1 (POLYPHOR, published 2014):

Legend:
Assay in all cases: cell-based or functional assay
[1] = biological target: Urokinase from human urine (human, UniProt P00749 21-431, limits assumed)
[2] = biological target: Trypsin, Iodination grade, from human pancreas (human, UniProt P07477 24-247)
[3] = biological target: T1, Elastase from human neutrophils (human, UniProt P08246 30-247, limits assumed)
T1 sequence (looked up): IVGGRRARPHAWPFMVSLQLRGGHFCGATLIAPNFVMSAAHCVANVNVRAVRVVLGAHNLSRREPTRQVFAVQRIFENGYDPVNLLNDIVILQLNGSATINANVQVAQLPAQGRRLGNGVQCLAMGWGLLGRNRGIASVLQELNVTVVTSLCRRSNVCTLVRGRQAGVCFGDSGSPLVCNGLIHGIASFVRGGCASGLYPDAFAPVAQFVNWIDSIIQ

[4] = biological target: Tryptase, from human lung (human, UniProt Q15661 31-275, limits assumed)
Chain of Tryptase, from human lung (Q15661 31-275 limits assumed): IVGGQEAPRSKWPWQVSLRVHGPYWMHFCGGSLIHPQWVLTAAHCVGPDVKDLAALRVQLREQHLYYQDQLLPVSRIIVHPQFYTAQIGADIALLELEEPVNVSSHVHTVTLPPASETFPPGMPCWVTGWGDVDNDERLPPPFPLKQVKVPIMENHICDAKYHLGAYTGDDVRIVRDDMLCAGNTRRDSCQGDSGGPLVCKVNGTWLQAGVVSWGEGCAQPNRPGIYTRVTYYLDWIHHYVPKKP

[5] = biological target: T2, CathepsinG, from human neutrophils (human, UniProt P08311 21-244)
T2 sequence (looked up): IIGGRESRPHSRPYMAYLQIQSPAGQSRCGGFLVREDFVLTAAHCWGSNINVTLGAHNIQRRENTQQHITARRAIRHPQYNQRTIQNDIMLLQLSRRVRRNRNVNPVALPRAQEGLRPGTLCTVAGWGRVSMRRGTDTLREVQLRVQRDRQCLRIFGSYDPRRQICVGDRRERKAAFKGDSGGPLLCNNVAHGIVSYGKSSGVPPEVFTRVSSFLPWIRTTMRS

[6] = biological target: Thrombin, from Human Plasma, high activity (human, UniProt P00734 328-622)
Chymase, from human skin = biological target: T3, Chymase, from human skin (human, UniProt P23946 22-247)
T3 sequence (looked up): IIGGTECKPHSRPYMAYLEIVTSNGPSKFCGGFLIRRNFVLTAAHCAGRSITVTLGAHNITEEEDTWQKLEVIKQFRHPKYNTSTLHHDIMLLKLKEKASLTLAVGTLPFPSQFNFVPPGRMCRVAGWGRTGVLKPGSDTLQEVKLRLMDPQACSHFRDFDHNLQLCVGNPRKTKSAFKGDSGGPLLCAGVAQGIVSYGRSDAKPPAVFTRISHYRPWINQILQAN

[7] = biological target: Chymotrypsin, from human pancreas (human, UniProt P17538 19-263)
Chain of Chymotrypsin, from human pancreas (P17538 19-263): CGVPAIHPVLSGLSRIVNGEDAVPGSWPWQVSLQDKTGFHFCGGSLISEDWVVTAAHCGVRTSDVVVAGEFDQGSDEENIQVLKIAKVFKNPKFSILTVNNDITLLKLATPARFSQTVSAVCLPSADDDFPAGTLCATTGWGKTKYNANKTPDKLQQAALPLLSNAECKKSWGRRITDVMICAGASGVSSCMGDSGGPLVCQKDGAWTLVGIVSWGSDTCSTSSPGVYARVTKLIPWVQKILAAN

[8] = biological target: Coagulation Factor Xa, from human plasma (human, UniProt P00742 41-488, limits assumed)
Chain of Coagulation Factor Xa, from human plasma (P00742 41-488 limits assumed): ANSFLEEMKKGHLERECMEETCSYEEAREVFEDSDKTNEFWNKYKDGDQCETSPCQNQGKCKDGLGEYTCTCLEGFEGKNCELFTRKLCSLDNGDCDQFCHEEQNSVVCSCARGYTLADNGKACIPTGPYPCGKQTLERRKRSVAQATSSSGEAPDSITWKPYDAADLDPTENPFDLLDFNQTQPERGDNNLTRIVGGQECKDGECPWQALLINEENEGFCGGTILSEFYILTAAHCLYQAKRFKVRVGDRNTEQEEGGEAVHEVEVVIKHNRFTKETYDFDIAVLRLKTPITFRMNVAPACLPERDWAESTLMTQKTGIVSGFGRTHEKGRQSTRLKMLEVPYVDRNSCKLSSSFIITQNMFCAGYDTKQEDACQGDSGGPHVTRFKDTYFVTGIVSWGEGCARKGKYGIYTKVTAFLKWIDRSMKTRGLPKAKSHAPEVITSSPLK

B1: Example 49 (peptide)
peptide: FCTKSDPPICS
HELM: PEPTIDE1{F.C.T.K.S.D.P.P.I.C.S.[dA].P}$PEPTIDE1,PEPTIDE1,2:R3-10:R3|PEPTIDE1,PEPTIDE1,1:R1-13:R2$$$V2.0
SMILES: CC[C@H](C)[C@@H]1NC(=O)[C@@H]2CCCN2C(=O)[C@@H]2CCCN2C(=O)[C@H](CC(=O)O)NC(=O)[C@H](CO)NC(=O)[C@H](CCCCN)NC(=O)[C@H]([C@@H](C)O)NC(=O)[C@@H]2CSSC[C@H](NC1=O)C(=O)N[C@@H](CO)C(=O)N[C@H](C)C(=O)N1CCC[C@H]1C(=O)N[C@@H](Cc1ccccc1)C(=O)N2
In the case of B1, the “% inhibition at 100 µM” value [1] is reported as 6.2%, the “% inhibition at 100 µM” value [2] is reported as 96% and the IC50 [3] is reported as over 10000 nmol. For the same binder, the “% inhibition at 100 µM” value [4] was 30.5%, the IC50 [5] was 82 nmol and the “% inhibition at 100 µM” value [6] was 7.9%. The “% inhibition at 100 µM” value (Chymase, from human skin) was 0% and the “% inhibition at 100 µM” value [7] was 0%.

B2: Example 81 (peptide)
peptide: XCTASXPPQCY
HELM: PEPTIDE1{[Nle].C.T.A.S.[CCCCCCCC[C@H](N[*:1])C(=O)[*:2]].P.P.Q.C.Y.[dP].P}$PEPTIDE1,PEPTIDE1,2:R3-10:R3|PEPTIDE1,PEPTIDE1,1:R1-13:R2$$$V2.0
SMILES: CCCCCCCC[C@@H]1NC(=O)[C@H](CO)NC(=O)[C@H](C)NC(=O)[C@H]([C@@H](C)O)NC(=O)[C@@H]2CSSC[C@H](NC(=O)[C@H](CCC(N)=O)NC(=O)[C@@H]3CCCN3C(=O)[C@@H]3CCCN3C1=O)C(=O)N[C@@H](Cc1ccc(O)cc1)C(=O)N1CCC[C@@H]1C(=O)N1CCC[C@H]1C(=O)N[C@@H](CCCC)C(=O)N2
In the case of B2, the IC50 [3] is reported as 28 nmol, the “% inhibition at 100 µM” value [8] is reported as 8.7% and the “% inhibition at 100 µM” value [5] is reported as 61.3%. For the same binder, the “% inhibition at 100 µM” value [6] was 13.1%.

B3: Example 19 (peptide)
peptide: ICTKSDPPXCR
HELM: PEPTIDE1{I.C.T.K.S.D.P.P.[Nle].C.R.[dP].P}$PEPTIDE1,PEPTIDE1,2:R3-10:R3|PEPTIDE1,PEPTIDE1,1:R1-13:R2$$$V2.0
SMILES: CCCC[C@@H]1NC(=O)[C@@H]2CCCN2C(=O)[C@@H]2CCCN2C(=O)[C@H](CC(=O)O)NC(=O)[C@H](CO)NC(=O)[C@H](CCCCN)NC(=O)[C@H]([C@@H](C)O)NC(=O)[C@@H]2CSSC[C@H](NC1=O)C(=O)N[C@@H](CCCNC(=N)N)C(=O)N1CCC[C@@H]1C(=O)N1CCC[C@H]1C(=O)N[C@@H]([C@@H](C)CC)C(=O)N2
B3 was tested, and the “% inhibition at 100 µM” value [1] was 4%, the “% inhibition at 100 µM” value [2] was 94% and the IC50 [3] was over 100000 nmol. The “% inhibition at 100 µM” value [8] was 32%, the IC50 [5] was 41 nmol and the “% inhibition at 100 µM” value [6] was 11%. The “% inhibition at 100 µM” value (Chymase, from human skin) was 26.9% and the “% inhibition at 100 µM” value [7] was 0%.

B4: Example 56 (peptide)
peptide: ICTKSDPPYCR
HELM: PEPTIDE1{I.C.T.K.S.D.P.P.Y.C.R.[dP].P}$PEPTIDE1,PEPTIDE1,2:R3-10:R3|PEPTIDE1,PEPTIDE1,1:R1-13:R2$$$V2.0
SMILES: CC[C@H](C)[C@@H]1NC(=O)[C@@H]2CCCN2C(=O)[C@H]2CCCN2C(=O)[C@H](CCCNC(=N)N)NC(=O)[C@@H]2CSSC[C@H](NC1=O)C(=O)N[C@@H]([C@@H](C)O)C(=O)N[C@@H](CCCCN)C(=O)N[C@@H](CO)C(=O)N[C@@H](CC(=O)O)C(=O)N1CCC[C@H]1C(=O)N1CCC[C@H]1C(=O)N[C@@H](Cc1ccc(O)cc1)C(=O)N2
With B4 the “% inhibition at 100 µM” value [2] was 84%, the IC50 [3] was over 100000 nmol and the “% inhibition at 100 µM” value [4] was 88.3%. The IC50 [5] was 47 nmol, the “% inhibition at 100 µM” value [6] was 0% and the “% inhibition at 100 µM” value (Chymase, from human skin) was 32.5%. For the same binder, the “% inhibition at 100 µM” value [7] was 25%.
